These results are taken from patent US7157616B2, “Method of selecting non-diabetogenic milk or milk products and milk or milk products so selected” (priority 1994, dated 2007).

The test system of series [1] is normal human macrophage. Nature of the series: Binding of tritiated hexapeptides to normal PB monocyte/macrophages. As to conditions: for CPM bound: +Glucose, NaN3, Captopril, Benzylsuccinate, Elastatinal. From the text: (§1) Using the method described by M'Hamiel Jaziri et al (1992) the human macrophage binding of the bovine peptides Pro-63 to Asn-68 (from the β-casein A1 and A2 variant sequences) were studied and compared with the binding of the peptide Val-54 Tyr-59 from human β-peptide to each of a normal human macrophage and a prediabetic human macrophage.

The test system of series [2] is prediabetic human macrophage. Kind of series: Binding of tritiated hexapeptides to prediabetic PB monocyte/macrophages. The settings on record: for CPM bound: +Glucose, NaN3, Captopril, Benzylsuccinate, Elastatinal.
Text: as §1

Series [3] has as its system murine macrophages. The settings on record: cited from earlier work.
In series [4] the target is binding site on normal human PB monocyte/macrophages (human). Nature of the series: binding of tritiated hexapeptide to PB monocyte/macrophages.
The target of series [5] is binding site on prediabetic human PB monocyte/macrophages (human). The series is described as above.
The target in series [6] is binding site on normal human PB monocyte/macrophages (human). Kind of series: binding of tritiated hexapeptide to PB monocyte/macrophages; reference bovine A1 peptide.
Series [7] has as its target binding site on prediabetic human PB monocyte/macrophages (human). The series is described as above.
Series [8] relates to human macrophage. As to conditions: cited from earlier work.
Series [9] relates to NOD mice. Kind of series: Diabetes incidence in NOD mice fed β-casein A1/A2 variants, whey or Bos indicus casein as 10% additions to Prosobee. As to conditions: for Number of Animals Developing Diabetes by 250 days / Percentage of animals developing diabetes by 250 days: 10% addition to Prosobee infant formula from weaning. In kind it is in vivo, mouse. The text has this: Similar groups of mice were fed a diet of the soy infant formula Prosobee™ and 10% W/W of: […]
d) Bos indicus casein, or
e) a 50/50 mixture of β-casein A1 variant/A2 variant.
The β-casein A1 variant precipitated diabetes in […] cases, the A2 variants in no cases and the A1/A2 mixture in 4 of 20 cases. The result mid-way between the […] results is consistent with there being no interaction between A1 and A2.
Lactic casein was manufactured in the New Zealand Dairy Research Institute Pilot Plant from the β-casein A1A1 and A2A2 phenotype bulk milks using methods essentially identical to those used in a standard New Zealand commercial lactic casein manufacturing dairy factory (see Muller, 1986). These caseins together with other constituents were then used in the feeding trials as described in Examples 2 and 3.

Read-outs that look alike come from different tables or passages of the source. Marks after values point to notes of the source that are not given here. Ends that are not written are not given here.

For the molecule “Pro-Gly-Pro-Ile-His-Asn (PGPIHN; also: tritium label) [Bovine A1]”, the CPM bound is 2220** CPM in series [1] (NORMAL PBM (N = 3)) and 4500** CPM in series [2] (PREDIABETIC PBM (N = 3)). In addition, in [1], the “binding to normal human macrophages” value is listed as “bind specifically”. The “binding to prediabetic macrophages” value in series [2] is given as “bind specifically”. Also, the “phagocytic activity of murine macrophages” value in series [3] is reported as “stimulate the phagocytic activity”.
With “Bovine A2: tritiated bovine hexapeptide Pro-63 to Asn-68 from the β-casein A2 variant sequence (proline at position 67) (PGPIPN; also: tritiated)”, the CPM bound in series [1] (NORMAL PBM (N = 3)) is 2900 CPM; in [2] (PREDIABETIC PBM (N = 3)) it was 2750 CPM.
In the case of “peptide Val-54 to Tyr-59 from human β-casein (from UniProt P05814 69-74)”, the CPM in series [4] is 2750 CPM; in series [5] it was 1400 CPM. In addition, the Ratio */** (human CPM to bovine A1 CPM) in series [6] is 1.2; in series [7], 0.31.
Turning to “Human: tritiated hexapeptide Val-54 to Tyr-59 from human β-casein (VEPIPY; also: tritiated) [reference compound]”, in series [1] (NORMAL PBM (N = 3)), the “Ratio */** (Human / Bovine A1 CPM)” value was determined as 1.2 and the CPM bound was 2750* CPM. In [1], the “binding to normal human macrophages” value was “bind specifically”. Besides, in series [2] (PREDIABETIC PBM (N = 3)), the “Ratio */** (Human / Bovine A1 CPM)” value is on record as 0.31 and the CPM bound is reported as 1400* CPM. In addition, the “binding to prediabetic macrophages” value in series [2] is given as “bind specifically”. Also, in series [8], the “binding site on the human macrophage” value is “specific binding site”.

B1: β-casein A1 variant: bovine β-casein A1 variant (SEQ ID NO: 2); casein made from milk of β-casein A1A1 phenotype cows (protein)
chain: RELEELNVPGEIVESLSSSEESITRIDKKIEKFQSEEQQQTEDELQDKIHPFAQTQSLVYPFPGPIHNSLPQNIPPLTQTPVVVPPFLQPEVMGVSKVKEAMAPKHKEMPFPKYPVQPFTESQSLTLTDVENLHLPPLLLQSWMHQPHQPLPPTVMFPPQSVLSLSQSKVLPVPEKAVPYPQRDMPIQAFLLYQQPVLGPVRGPFPIIV
Regarding B1, in series [9], the “diabetogenic activity (words)” value was “diabetogenic”, the “Number of Animals Developing Diabetes by 250 days” value is recorded as 9 and the “Percentage of animals developing diabetes by 250 days” value is reported as 45%. Also, the “diabetogenic activity (words)” value in series [9] (listed as A1 variant) is recorded as “does have diabetogenic activity”.

B2: β-casein A2 variant: bovine β-casein A2 variant; casein made from milk of β-casein A2A2 phenotype cows (protein)
chain: RELEELNVPGEIVESLSSSEESITRIDKKIEKFQSEEQQQTEDELQDKIHPFAQTQSLVYPFPGPIPNSLPQNIPPLTQTPVVVPPFLQPEVMGVSKVKEAMAPKHKEMPFPKYPVQPFTESQSLTLTDVENLHLPPLLLQSWMHQPHQPLPPTVMFPPQSVLSLSQSKVLPVPEKAVPYPQRDMPIQAFLLYQQPVLGPVRGPFPIIV
As to B2, the “diabetogenic activity (words)” value in series [9] is listed as “is not”; in series [9] (listed as A2 variant) it was “do not show diabetogenic activity”. Further, the “Number of Animals Developing Diabetes by 250 days” value in series [9] was 0; in series [9] (listed as A2 variants) it was “no cases”. In series [9], the “Percentage of animals developing diabetes by 250 days” value stood at 0%.
Turning to PGPIHN (also: tritiated) [bovine β-casein A1 hexapeptide Pro-63 to Asn-68 (Pro-Gly-Pro-Ile-His-Asn)], the CPM was found to be 2220 CPM in [4] and 4500 CPM in series [5].
Consider PGPIPN (also: tritiated) [bovine β-casein A2 hexapeptide Pro-63 to Asn-68], for which the CPM in series [4] came to 2900 CPM; in series [5], 2750 CPM.
